Results taken from patent publication US9623039B2, “Treatment and prevention of pathological conditions using iduna related techniques and compositions” (VALTED, LLC, priority 2010, dated 2017).

What was measured:
[1] = Intrastriatal NMDA lesion in Iduna transgenic mice; assay type: in vivo, mouse; conditions: Iduna transgenic mice vs littermate wild type, intrastriatal NMDA 20 nmoles
Description: To determine whether Iduna is protective in vivo, transgenic mice overexpressing Iduna were generated by knocking in Iduna into the ROSA26 genomic locus resulting in a four-fold expression over wild type littermate mice (FIGS. 58-60). NMDA induced lesions are reduced by approximately 80% in the Iduna transgenic mice compared to littermate wild type control animals following an intrastriatal injection of NMDA (20 nmoles) (FIGS. 61 and 62).
Transgenic Mice: ES cells were targeted and screened as described in Soriano et al. Briefly, the pROSA26PA-iduna plasmid was linearized with KpnI and electroporated into ES cells derived from mouse strain 129SvEv. Twelve of 277 G418-resistant colonies had undergone correct homologous recombination, as determined by Southern blot and PCR of the ROSA26-Iduna allele. Two of these ROSA26-Iduna ES clones were injected into C57BL/6 blastocysts. Resulting chimeras were bred to C57BL/6 mice and offspring were tested for germline transmission. Heterozygous mice for the Rosa26PA-Iduna allele were crossed to Nestin-Cre^(+/+) mice (on C57BL/6 background), which were obtained from the Jackson Laboratory, to obtain ROSA26PA-Iduna^(+/loxP)/Nestin-Cre^(−/+) mice. Nestin-cre/ROSA26PA-Iduna transgenic mice, in which Cre recombinase expression is under the control of the nestin promoter, specifically expresses Iduna in brain. […]

cortical neurons = assay: Calcium imaging and mitochondrial Ca2+ uptake; assay type: cell-based, mouse
Description: Calcium Imaging: Neuronal cells were plated on 17 mm glass cover slips, pre-coated with poly-L-ornithine (0.1 mg/ml). On DIV 14, the cultures were loaded with calcium sensitive dye Fluo-5f (2.5 μM, dissolved in pleuronic acid/DMSO solution) for 45 min at 37° C. and thereafter placed on a thermostatically confocal microscopic stage (Carl Zeiss). HEPES balanced salt solution (HBSS: NaCl 137 mM, KCl 5 mM, HEPES 20 mM, glucose 10 mM, CaCl2 1.4 mM, NaHCO3 3 mM, Na2HPO4 0.6 mM, KH2PO4 0.4 mM, pH 7.4) was superfused to the cultures for 100 s to obtain a steady base-line. NMDA (500 μM for 5 min) was used to induce intracellular calcium influx. Florescence values were monitored at every 10 s and calculated using LSM 510 Meta software and represent the changes in cellular calcium.
Measurements of Mitochondrial Ca^2+-uptake Capacity: Extramitochondrial free Ca^2+ was monitored in the presence of isolated mitochondria or digitonin-permeabilized cells, using an indicator of extramitochondrial free Ca^2+ (Calcium green-5N, Invitrogen). […] Fluorescence was continuously monitored at an excitation/emission at 488/532 nm respectively. […] Ca^2+ uptake was monitored by addition of 50 μM CaCl2 to the assay medium using a Hamilton syringe.

B1: Iduna: novel NMDA-induced cell survival protein, PAR-dependent E3 ligase; 359 amino acids (protein)
chain: MEMAGCGEIDHSINMLPTNKKANESCSNTAPSLTVPECAICLQTCVHPVSLPCKHVFCYLCVKGASWLGKRCALCRQEIPEDFLDKPTLLSPEELKAASRGNGEYAWYYEGRNGWWQYDERTSRELEDAFSKGKKNTEMLIAGFLYVADLENMVQYRRNEHGRRRKIKRDIIDIPKKGVAGLRLDCDTNTVNLARESSADGADSGSAQTGASVQLAVPSSTRPLTSVDGQLTSPVTPSPDAGISLEDSFAHLQLSGDSIAERSHRGEGEEDHESPSSGRVPDTSVEETESDASSDSEDAPVVVAQHSLTQQRPLVPNGNQTVADQSDRSGTDRSVAGGGTMSVNVRSRRPDGQCTVIEV
[1]
  reduction of NMDA induced lesions: approximately 80%
Cortical neurons; Calcium green-5N
  mitochondrial calcium uptake: does not interfere with mitochondrial calcium uptake
Cortical neurons; fluo-5F, NMDA 500 μM 5 min
  NMDA-induced calcium influx: does not interfere with NMDA-induced intercellular calcium influx
